First the molecules themselves.
B1: TPR 5TU (parent)
chain: GGAUCUUCUCGAUCUAACAAAAAAGACAAAUCUGCCACAAAGCUUGAGAGCAUCUUCGGAUGCAGAGGCGGCAGCCUUCGGUGGCGCGAUAGCGCCAACGUUCUCAACUAUGACACGCAAAACGCGUGCUCCGUUGAAUGGAGUUUAUCAUG

The text below walks through data of the RNAGym collection of RNA variant scans (doi:10.1073/pnas.2313332121).

Variants at the floor of the assay were thinned out.

In the data set the parent is B1. The experiment in a line: polymerase ribozyme fitness, log enrichment relative to wild type (log ratio); higher = more active; in vitro selection for triplet polymerase activity. The method, boiled down:
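PCR was used to build mutant libraries for each subunit of a heterodimeric triplet polymerase ribozyme, which were then transcribed. A single in vitro selection round, in triplicate, used a frozen incubation at −7 °C and recovered extended constructs by gel excision, streptavidin beads and RT-PCR. Fitness is the logarithm of genotype enrichment relative to wild-type enrichment, averaged over replicates with inverse-variance weights. The logarithm is base 2, and after Illumina sequencing only genotypes with ≥10 input reads and ≥1 read per output were kept.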
As to A3U G58A C96G, the “polymerase ribozyme fitness (log ratio)” value is -1.09.

In the case of U44G G136A, the “polymerase ribozyme fitness (log ratio)” value is -3.71.

With C96A A106C, the “polymerase ribozyme fitness (log ratio)” value was -0.591.

On to C5U A22C G83C C93U U101G C116A, for which the “polymerase ribozyme fitness (log ratio)” value is -2.06.

In the case of C35G C95G A97C C114G G124A A138G, the “polymerase ribozyme fitness (log ratio)” value is not above -4.2.

On to A16C C57A G94A C116U G124A A142U, for which the “polymerase ribozyme fitness (log ratio)” value was -3.92.

On to U6A A28C U44A U45A A49U C85G U144A, for which the “polymerase ribozyme fitness (log ratio)” value was not above -4.2.

Regarding U44A C85G U90C U104G, the “polymerase ribozyme fitness (log ratio)” value is not above -4.2.

In the case of C14U G83C A106C, the “polymerase ribozyme fitness (log ratio)” value was -2.96.

Regarding A21C G50C C63U C93G, the “polymerase ribozyme fitness (log ratio)” value is -1.78.

On to C14G A29U A30G C96U, for which the “polymerase ribozyme fitness (log ratio)” value is not above -4.2.

On to C87U C105U, for which the “polymerase ribozyme fitness (log ratio)” value is -2.21.

Turning to C57G C69G U101G C118U, the “polymerase ribozyme fitness (log ratio)” value was -2.81.

As for A30G G50C C76U C103G, the “polymerase ribozyme fitness (log ratio)” value was not above -4.2.

Consider A21U A26G G86U C118U, for which the “polymerase ribozyme fitness (log ratio)” value was not above -4.2.

Take A47U C114U: the “polymerase ribozyme fitness (log ratio)” value was -1.72.

As for C57G G117U G124C, the “polymerase ribozyme fitness (log ratio)” value is -1.64.

For C14A C76G C87A A119G A138C U148A, the “polymerase ribozyme fitness (log ratio)” value is not above -4.2.

A26G U31A G48A A60C C76G A107C A119U: the “polymerase ribozyme fitness (log ratio)” value was not above -4.2.

As for A37C U127G, the “polymerase ribozyme fitness (log ratio)” value was -3.83.

As for C96G A120C, the “polymerase ribozyme fitness (log ratio)” value was found to be 0.168.

C96G A120G: the “polymerase ribozyme fitness (log ratio)” value is -2.

Regarding C10G A12U A22G C35G G94A C95U C99A U111C, the “polymerase ribozyme fitness (log ratio)” value was not above -4.2.

Turning to U61G G84A U139C U145C, the “polymerase ribozyme fitness (log ratio)” value was not above -4.2.

On to G11A A12U C51G U55G G62C U90C C108G, for which the “polymerase ribozyme fitness (log ratio)” value is not above -4.2.

With G67A C99U A107U G143C, the “polymerase ribozyme fitness (log ratio)” value is not above -4.2.

Regarding U13C C14G C57A U101G, the “polymerase ribozyme fitness (log ratio)” value was -1.23.

A37C C54U C96U: the “polymerase ribozyme fitness (log ratio)” value is -0.249.

Regarding C54A U102A, the “polymerase ribozyme fitness (log ratio)” value was -2.71.

For C43G A60C G62A C96U U102G, the “polymerase ribozyme fitness (log ratio)” value is not above -4.2.

In the case of A47C C57G G58C, the “polymerase ribozyme fitness (log ratio)” value amounted to 0.275.

On to U45A A49G G83A C85U C99G U104C, for which the “polymerase ribozyme fitness (log ratio)” value is not above -4.2.

For A24U C79U U102G C118U A119G G140A, the “polymerase ribozyme fitness (log ratio)” value is not above -4.2.

Turning to C14G G94A, the “polymerase ribozyme fitness (log ratio)” value is -2.61.

C85A A97U G152A: the “polymerase ribozyme fitness (log ratio)” value was not above -4.2.

G46U C85A: the “polymerase ribozyme fitness (log ratio)” value is -2.02.

Turning to C32G U55A C79A C116G C149A, the “polymerase ribozyme fitness (log ratio)” value was not above -4.2.

A17C C32A U53A G67A G74C U101A: the “polymerase ribozyme fitness (log ratio)” value is not above -4.2.

Turning to G50C C87A C93A C99U A137U A138C, the “polymerase ribozyme fitness (log ratio)” value is not above -4.2.

Consider A3U C43A U45A A47U G59C C125U U130C A137G, for which the “polymerase ribozyme fitness (log ratio)” value was not above -4.2.

As to G70C C87A G140A, the “polymerase ribozyme fitness (log ratio)” value is not above -4.2.

With G50A U56A C87U G124A, the “polymerase ribozyme fitness (log ratio)” value was -2.44.

Take G58U G92A: the “polymerase ribozyme fitness (log ratio)” value is -2.51.

As to C10G U13G A16C U56A G92C C105A C114U, the “polymerase ribozyme fitness (log ratio)” value was not above -4.2.

Turning to C85U G94C G143A, the “polymerase ribozyme fitness (log ratio)” value is -1.78.

U31C C93G: the “polymerase ribozyme fitness (log ratio)” value was -3.06.

As for A3C A12G C87G, the “polymerase ribozyme fitness (log ratio)” value is -3.93.

Turning to A22U A39C U61A C72U C85G G141A, the “polymerase ribozyme fitness (log ratio)” value is not above -4.2.

In the case of A21U A23U A29C C35G G48A, the “polymerase ribozyme fitness (log ratio)” value was not above -4.2.

Regarding C85G C116A, the “polymerase ribozyme fitness (log ratio)” value is -0.515.

As for C10U C18G A19C A40U C87G G88U, the “polymerase ribozyme fitness (log ratio)” value is not above -4.2.

In the case of U15C A24C C93U G128U G140A U144C, the “polymerase ribozyme fitness (log ratio)” value is not above -4.2.

Turning to C63A G83A U145C A150U, the “polymerase ribozyme fitness (log ratio)” value is -0.965.

Take A16U A47C U53A C85G C131A U134A G140U: the “polymerase ribozyme fitness (log ratio)” value is not above -4.2.

In the case of C85G C125A, the “polymerase ribozyme fitness (log ratio)” value was -2.37.

Consider A19U A39G C85U U134G, for which the “polymerase ribozyme fitness (log ratio)” value is not above -4.2.

As for C85A C96U A119C, the “polymerase ribozyme fitness (log ratio)” value was -0.783.

Regarding G88U G124A G128U U135C, the “polymerase ribozyme fitness (log ratio)” value was not above -4.2.

For the variant A21U G136U, the “polymerase ribozyme fitness (log ratio)” value is -2.65.

In the case of U56A C96U U101C U139G, the “polymerase ribozyme fitness (log ratio)” value is -0.437.

As to A52C G88A C95U C99U A110U, the “polymerase ribozyme fitness (log ratio)” value was -4.07.

Consider A20C U56A, for which the “polymerase ribozyme fitness (log ratio)” value is -0.524.

For the variant A37G U145G, the “polymerase ribozyme fitness (log ratio)” value was -2.35.

Take A17U A29U G74C G124U: the “polymerase ribozyme fitness (log ratio)” value was not above -4.2.

With C85A U139G, the “polymerase ribozyme fitness (log ratio)” value is -1.11.

A19U A24U A30U U55A C93G C103G A106C C132G U146C: the “polymerase ribozyme fitness (log ratio)” value is not above -4.2.

With G59C A73G C85A, the “polymerase ribozyme fitness (log ratio)” value was -2.84.

On to A17C A23U A40C G86U, for which the “polymerase ribozyme fitness (log ratio)” value was not above -4.2.

On to U45A C93A G141A, for which the “polymerase ribozyme fitness (log ratio)” value was -4.05.

In the case of A26C A37G A60U U90A G100C G141A C149U, the “polymerase ribozyme fitness (log ratio)” value is not above -4.2.

As to G50C C87U A122U, the “polymerase ribozyme fitness (log ratio)” value was -3.11.

Regarding C5U U13A A17C C27G A28U A52C C85U A113C U127A U144G, the “polymerase ribozyme fitness (log ratio)” value was not above -4.2.

On to C57A G74U G88U A115G A119U U145G C149G, for which the “polymerase ribozyme fitness (log ratio)” value was not above -4.2.

In the case of A60G C96U U101G G128A, the “polymerase ribozyme fitness (log ratio)” value is -3.75.

Turning to C116A U148C, the “polymerase ribozyme fitness (log ratio)” value was -3.09.

On to A40C A52C G81A G83A C93G, for which the “polymerase ribozyme fitness (log ratio)” value is not above -4.2.

C27U A39U U53A C93U: the “polymerase ribozyme fitness (log ratio)” value is not above -4.2.

Consider C36A G48A C93U A113U C118G U144G A150U, for which the “polymerase ribozyme fitness (log ratio)” value was not above -4.2.

For A47U U55G G68A G84U U151A, the “polymerase ribozyme fitness (log ratio)” value is not above -4.2.

With U7C C38U C87A A122U, the “polymerase ribozyme fitness (log ratio)” value is not above -4.2.

As to G25A A28U G94A U102A A137C, the “polymerase ribozyme fitness (log ratio)” value was not above -4.2.

In the case of A12C C27U C35U A52C C75A A115C, the “polymerase ribozyme fitness (log ratio)” value is not above -4.2.

G83A U135G G141A: the “polymerase ribozyme fitness (log ratio)” value was -3.78.
